Data: IntAct's records for PubMed 19879842
Positions count from the first letter of the chain named.

B1: Dual specificity tyrosine-phosphorylation-regulated kinase mbk-2 (Caenorhabditis elegans), Q9XTF3-2 (parent)
chain: MTLFEPSTSGNRMGYRGSSNSSSGVGSGGSGSLMTQSIGGPNKHLSASHSTLNTASTHDMMHSKIPKSPSNESLSRSHTSSSGGSQGGHNSNSGSNSGFRPEDAVQTFGAKLVPFEKNEIYNYTRVFFVGSHAKKQAGVIGGANNGGYDDENGSYQLVVHDHIAYRYEVLKVIGKGSFGQVIKAFDHKYQQYVALKLVRNEKRFHRQADEEIRILDHLRRQDSDGTHNIIHMLDYFNFRNHKCITFELLSINLYELIKRNKFQGFSLMLVRKFAYSMLLCLDLLQKNRLIHCDLKPENVLLKQQGRSGIKVIDFGSSCFDDQRIYTYIQSRFYRAPEVILGTKYGMPIDMWSLGCILAELLTGYPLLPGEDENDQLALIIELLGMPPPKSLETAKRARTFITSKGYPRYCTATSMPDGSVVLAGARSKRGKMRGPPASRSWSTALKNMGDELFVDFLKRCLDWDPETRMTPAQALKHKWLRRRLPNPPRDGLESMGGLADHEVCFIIF
partner: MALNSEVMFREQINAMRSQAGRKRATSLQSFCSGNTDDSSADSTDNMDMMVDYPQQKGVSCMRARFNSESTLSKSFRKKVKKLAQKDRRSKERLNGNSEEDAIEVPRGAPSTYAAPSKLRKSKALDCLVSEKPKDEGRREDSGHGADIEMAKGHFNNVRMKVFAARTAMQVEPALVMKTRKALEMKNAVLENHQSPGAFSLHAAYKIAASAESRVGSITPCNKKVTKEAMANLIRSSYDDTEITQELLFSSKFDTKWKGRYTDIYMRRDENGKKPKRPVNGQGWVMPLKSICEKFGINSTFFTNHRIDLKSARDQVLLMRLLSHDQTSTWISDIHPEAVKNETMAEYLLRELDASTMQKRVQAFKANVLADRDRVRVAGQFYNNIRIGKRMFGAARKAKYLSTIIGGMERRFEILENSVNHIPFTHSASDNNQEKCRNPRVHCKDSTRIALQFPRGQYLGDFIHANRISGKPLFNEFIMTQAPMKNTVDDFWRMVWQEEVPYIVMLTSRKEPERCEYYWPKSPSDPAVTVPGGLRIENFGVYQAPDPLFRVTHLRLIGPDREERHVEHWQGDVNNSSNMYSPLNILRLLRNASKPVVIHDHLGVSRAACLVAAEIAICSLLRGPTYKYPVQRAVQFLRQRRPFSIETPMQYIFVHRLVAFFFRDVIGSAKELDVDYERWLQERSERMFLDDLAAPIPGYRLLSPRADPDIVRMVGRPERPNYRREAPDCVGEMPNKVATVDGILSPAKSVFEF
B2: Dual specificity tyrosine-phosphorylation-regulated kinase mbk-2 (Caenorhabditis elegans), Q9XTF3-2 (parent)
chain: B1 chain
partner: B1 partner with R139S, N157D, T255S, M344L, K444R, T739A

Variants of: B1
Conditions: with egg4_caeel egg-4, O01767

| Variant | effect of a mutation on the interaction |
| --- | --- |
| MTLFEPSTSGNRMGYRGSSNSSSGVGSGGSGSLMTQSIGGPNKHLSASHSTLNTASTHDMMHSKIPKSPSNESLSRSHTSSSGGSQGGHNSNSGSNSGFRPEDAVQTFGAKLVPFEKNEIYNYTRVFFVGSHAKKQAGVIGGANNGGYDDENGSYQLVVHDHIAYRYEVLKVIGKGSFGQVIKAFDHKYQQYVALRLVRNEKRFHRQADEEIRILDHLRRQDSDGTHNIIHMLDYFNFRNHKCITFELLSINLYELIKRNKFQGFSLMLVRKFAYSMLLCLDLLQKNRLIHCDLKPENVLLKQQGRSGIKVIDFGSSCFDDQRIYTYIQSRFYRAPEVILGTKYGMPIDMWSLGCILAELLTGYPLLPGEDENDQLALIIELLGMPPPKSLETAKRARTFITSKGYPRYCTATSMPDGSVVLAGARSKRGKMRGPPASRSWSTALKNMGDELFVDFLKRCLDWDPETRMTPAQALKHKWLRRRLPNPPRDGLESMGGLADHEVCFIIF [K196R] | decreasing interaction |
| MTLFEPSTSGNRMGYRGSSNSSSGVGSGGSGSLMTQSIGGPNKHLSASHSTLNTASTHDMMHSKIPKSPSNESLSRSHTSSSGGSQGGHNSNSGSNSGFRPEDAVQTFGAKLVPFEKNEIYNYTRVFFVGSHAKKQAGVIGGANNGGYDDENGSYQLVVHDHIAYRYEVLKVIGKGSFGQVIKAFDHKYQQYVALKLVRNEKRFHRQADEEIRILDHLRRQDSDGTHNIIHMLDYFNFRNHKCITFELLSINLYELIKRNKFQGFSLMLVRKFAYSMLLCLDLLQKNRLIHCDLKPENVLLKQQGRSGIKVIDFGSSCFDDQRIFTFIQSRFYRAPEVILGTKYGMPIDMWSLGCILAELLTGYPLLPGEDENDQLALIIELLGMPPPKSLETAKRARTFITSKGYPRYCTATSMPDGSVVLAGARSKRGKMRGPPASRSWSTALKNMGDELFVDFLKRCLDWDPETRMTPAQALKHKWLRRRLPNPPRDGLESMGGLADHEVCFIIF [Y325F;Y327F] | decreasing interaction |

Variants of: B2
Conditions: with egg5_caeel egg-5, O61789

| Variant | effect of a mutation on the interaction |
| --- | --- |
| MTLFEPSTSGNRMGYRGSSNSSSGVGSGGSGSLMTQSIGGPNKHLSASHSTLNTASTHDMMHSKIPKSPSNESLSRSHTSSSGGSQGGHNSNSGSNSGFRPEDAVQTFGAKLVPFEKNEIYNYTRVFFVGSHAKKQAGVIGGANNGGYDDENGSYQLVVHDHIAYRYEVLKVIGKGSFGQVIKAFDHKYQQYVALRLVRNEKRFHRQADEEIRILDHLRRQDSDGTHNIIHMLDYFNFRNHKCITFELLSINLYELIKRNKFQGFSLMLVRKFAYSMLLCLDLLQKNRLIHCDLKPENVLLKQQGRSGIKVIDFGSSCFDDQRIYTYIQSRFYRAPEVILGTKYGMPIDMWSLGCILAELLTGYPLLPGEDENDQLALIIELLGMPPPKSLETAKRARTFITSKGYPRYCTATSMPDGSVVLAGARSKRGKMRGPPASRSWSTALKNMGDELFVDFLKRCLDWDPETRMTPAQALKHKWLRRRLPNPPRDGLESMGGLADHEVCFIIF [K196R] | decreasing interaction |
| MTLFEPSTSGNRMGYRGSSNSSSGVGSGGSGSLMTQSIGGPNKHLSASHSTLNTASTHDMMHSKIPKSPSNESLSRSHTSSSGGSQGGHNSNSGSNSGFRPEDAVQTFGAKLVPFEKNEIYNYTRVFFVGSHAKKQAGVIGGANNGGYDDENGSYQLVVHDHIAYRYEVLKVIGKGSFGQVIKAFDHKYQQYVALKLVRNEKRFHRQADEEIRILDHLRRQDSDGTHNIIHMLDYFNFRNHKCITFELLSINLYELIKRNKFQGFSLMLVRKFAYSMLLCLDLLQKNRLIHCDLKPENVLLKQQGRSGIKVIDFGSSCFDDQRIFTFIQSRFYRAPEVILGTKYGMPIDMWSLGCILAELLTGYPLLPGEDENDQLALIIELLGMPPPKSLETAKRARTFITSKGYPRYCTATSMPDGSVVLAGARSKRGKMRGPPASRSWSTALKNMGDELFVDFLKRCLDWDPETRMTPAQALKHKWLRRRLPNPPRDGLESMGGLADHEVCFIIF [Y325F;Y327F] | decreasing interaction |
